Square brackets hold non-standard residues; d marks the D form. Ends that are not written are not given here. 2Nal = N[C@@H](Cc1ccc2ccccc2c1)C(=O)O; d2Nal = N[C@H](Cc1ccc2ccccc2c1)C(=O)O
Molecular target: T1, insulin-degrading enzyme (recombinant human IDE) (human, UniProt P14735 1-1019)
T1 construct: insulin-degrading enzyme, human, recombinant; source: recombinant, purified from bacteria [33]
Assay: enzyme inhibition assay (Ki); recombinant human IDE (nominal 1 nM); dose-response of the hydrolysis of IDE substrates (FRET1, SP1, FAβB, 125I-insulin, or insulin by HTRF); the substrate used for the Ki values in the text is not stated
Conditions: both partners purified

Row | Binder | fold gain in potency (relative Ki) against Phe at P1' | Ki
1 | [d2Nal]-[dR]-[dY] (also: retro-inverso backbone, hydroxamic acid next to P1', P1' said to be a β-amino acid) [retro-inverso peptide hydroxamate Xaa-Arg-Tyr with 2-naphthylalanine (2-Nap) at P1'] | ~100 fold | 
2 | [2Nal]RWE (also: N-terminal hydroxamic acid moiety, structure not given here) [Ii1 (IDE inhibitor 1), conventional peptide hydroxamate incorporating 2-Nap at the P1' position] |  | ~1.7 nM
